Measured values from US20200181257A1 (Chugai, published 2020).

Legend:
Assay in all cases: SPR, antibody captured on Protein A
[1] = biological target: T1, human Fcγ receptor hFcgRIIa (R) (human, UniProt P12318 36-217)
T1 construct: also called FcγRIIa (type R); FcγIIA
T1 chain: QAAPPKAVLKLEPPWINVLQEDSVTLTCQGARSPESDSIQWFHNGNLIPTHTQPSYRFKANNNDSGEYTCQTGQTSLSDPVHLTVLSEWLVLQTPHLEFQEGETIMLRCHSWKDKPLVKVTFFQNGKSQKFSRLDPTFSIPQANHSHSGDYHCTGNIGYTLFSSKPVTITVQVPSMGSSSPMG
Experimental: (§1) The CH2 domain, which was modified in this examination, is known to be involved in interaction with several human Fcγ receptors (hereinafter denoted as hFcgRs) which affect effector functions. Therefore, the binding of TS1 and TS19 prepared by using the H chain of anti-IL6R produced in Example 2 to hFcgRs was measured, according to the method described in Reference Example 3.
(§2) Interactions between antibodies and hFcgRs (hFcgRIa, hFcgRIIa(R), hFcgRIIa(H), hFcgRIIb, hFcgRIIIa(F), and hFcgRIIIa(V)) were analyzed using Biacore T100 (GE Healthcare). HBS-EP+(GE Healthcare) was used for the running buffer, and the measurement temperature was set at 25° C. Protein A (Invitrogen) was immobilized by the amino coupling method, and an antibody of interest was captured thereon. Then, hFcγR solutions diluted using the running buffer were injected to allow interaction with the captured antibody at a flow rate of 30 μL/min for five minutes for hFcγRIa, and at a flow rate of 5 μL/min for one minute for the other hFcγRs. […] Since the hFcγR binding level depends on the amount of captured antibodies, the FcgR-binding levels were corrected so that the capture level of each antibody would be 200 RU (resonance unit) for hFcgRIa and 1000 RU (resonance unit) for the other hFcgRs. The captured antibodies were washed by allowing 10 mM glycine-HCl (pH 1.5) to react for 30 seconds at a flow rate of 30 μL/min to recycle the chip for reuse.

[2] = biological target: T2, human Fcγ receptor hFcgRIIa (H) (human, UniProt P12318 36-217)
T2 construct: also called FcγRIIa (type H); FcγIIA
T2 sequence: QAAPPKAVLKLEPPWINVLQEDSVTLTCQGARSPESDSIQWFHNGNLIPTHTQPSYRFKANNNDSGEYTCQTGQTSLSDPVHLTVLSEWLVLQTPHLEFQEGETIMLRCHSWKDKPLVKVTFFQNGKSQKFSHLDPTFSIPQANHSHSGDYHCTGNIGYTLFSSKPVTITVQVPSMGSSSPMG
Experimental: as §1, §2

[3] = biological target: T3, human Fcγ receptor hFcgRIIb (human, UniProt P31994 43-217, limits assumed)
T3 construct: Construct used in the SPR assay is not described; also called FcγRIIb; FcγIIB
T3 sequence: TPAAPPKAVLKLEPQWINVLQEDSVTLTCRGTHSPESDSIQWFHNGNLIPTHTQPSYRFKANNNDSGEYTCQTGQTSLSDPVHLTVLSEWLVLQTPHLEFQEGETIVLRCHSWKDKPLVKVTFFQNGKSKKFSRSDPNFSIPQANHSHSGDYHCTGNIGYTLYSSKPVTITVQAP
Experimental: as §1, §2

[4] = biological target: T4, human Fcγ receptor hFcgRIIIa (V) (human, UniProt P08637 17-208)
T4 construct: also called FcγRIIIa allotype V158; FcγIIIA
T4 sequence (P08637 other isoform, or with tags, fused parts or gaps limits assumed): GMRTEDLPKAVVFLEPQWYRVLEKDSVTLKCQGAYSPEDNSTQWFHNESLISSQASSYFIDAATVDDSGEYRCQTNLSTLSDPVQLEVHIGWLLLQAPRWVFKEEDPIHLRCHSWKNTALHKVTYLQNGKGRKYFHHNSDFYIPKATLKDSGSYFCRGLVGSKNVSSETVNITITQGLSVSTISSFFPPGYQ
Experimental: as §1, §2

[5] = biological target: T5, human Fcγ receptor hFcgRIa (human, UniProt P12314 16-292, limits assumed)
T5 construct: Construct used in the SPR assay is not described; also called hFcγRIa; FcγI
T5 sequence (P12314 16-292 limits assumed): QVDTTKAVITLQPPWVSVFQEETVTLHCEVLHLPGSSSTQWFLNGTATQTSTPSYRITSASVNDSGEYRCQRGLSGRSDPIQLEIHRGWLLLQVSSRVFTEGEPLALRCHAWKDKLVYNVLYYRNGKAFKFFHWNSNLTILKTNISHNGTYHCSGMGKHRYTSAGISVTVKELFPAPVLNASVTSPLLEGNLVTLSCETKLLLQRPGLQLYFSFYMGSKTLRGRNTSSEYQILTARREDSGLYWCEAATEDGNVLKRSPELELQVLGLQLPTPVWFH
Experimental: as §1, §2

B1: TS16 (antibody)
heavy: QVQLQESGPGLVRPSQTLSLTCTVSGYSITSDHAWSWVRQPPGRGLEWIGYISYSGITTYNPSLKSRVTMLRDTSKNQFSLRLSSVTAADTAVYYCARSLARTTAMDYWGQGSLVTVSSASTKGPSVFPLAPSSKSTSGGTAALGCLVKDYFPEPVTVSWNSGALTSGVHTFPAVLQSSGLYSLSSVVTVPSSSLGTQTYICNVNHKPSNTKVDKKVEPKSCDKTHTCPPCPAPELLGGPSVFLFPPKPKDTLMISRTPEVTCVVVDVSHEDPEVKFNWYVDGVEVHNAKTKPREEMGNGTYRVVSVLTVLHQDWLNGKEYKCKVSNKALPAPIEKTISKAKGQPREPQVYTLPPSRDELTKNQVSLTCLVKGFYPSDIAVEWESNGQPENNYKTTPPVLDSDGSFFLYSKLTVDKSRWQQGNVFSCSVMHEALHNHYTQKSLSLSP
light: not shown
notes: anti-IL6R IgG1, G1d with Q295M/Y296G/S298G (EU)
[1]
  binding relative to G1 (=100): 25.3
[2]
  binding relative to G1 (=100): 15.9
[3]
  binding relative to G1 (=100): 21.7
[4]
  binding relative to G1 (=100): 28.9
[5]
  binding relative to G1 (=100): 96.8
